From patent US20110150884A1 (ST VINCENT S INSTITUTE OF MEDICAL RESEARCH, published 2011)
One block for each binder: values may come before it.

B1: sβc N346Q, soluble extracellular domain of human βc with the third N-glycosylation site removed (receptor, UniProt P32927 17-443, looked up)
chain: WERSLAGAEETIPLQTLRCYNDYTSHITCRWADTQDAQRLVNVTLIRRVNEDLLEPVSCDLSDDMPWSACPHPRCVPRRCVIPCQSFVVTDVDYFSFQPDRPLGTRLTVTLTQHVQPPEPRDLQISTDQDHFLLTWSVALGSPQSHWLSPGDLEFEVVYKRLQDSWEDAAILLSNTSQATLGPEHLMPSSTYVARVRTRLAPGSRLSGRPSKWSPEVCWDSQPGDEAQPQNLECFFDGAAVLSCSWEVRKEVASSVSFGLFYKPSPDAGEEECSPVLREGLGSLHTRHHCQIPVPDPATHGQYIVSVQPRRAEKHIKSSVNIQMAPPSLQVTKDGDSYSLRWETMKMRYEHIDHTFEIQYRKDTATWKDSKTETLQNAHSMALPALEPSTRYWARVRVRTSRTGYNGIWSEWSEARSWDTESVLPMW
modifications: N-linked carbohydrate at Asn58 (NAG-NAG-MAN) and Asn191 (NAG)
notes: extracellular domain; Intertwined homodimer; Cloned into pIBV5-His; also called sβc ΔN3; GM-CSF βc chain

Assays:
[1] = target: the molecule itself; test: X-ray crystal structure, 3.3 Å
Protocol: (§1) The structure was determined by molecular replacement using the method of Storoni et al, Acta Crystallogr. D 60:432, 2004.
(§2) A homology model of domain 2 of the alpha chain was built into this density. […] D Biol. Crystallogr. 50:760, 1994 and refinement using the method of Murshudov et al, Acta Crystallogr. D 53:240, 1997. […] During the final refinement step each subunit was treated as a rigid body for the purposes of TLS (translation, libration and screw rotation tensors) refinement to account for overall differences in displacements between the molecules and anisotropy in the data (Winn et al, Acta Crystallogr. D 57:122, 2001; Painter and Merritt, Acta Crystallogr. D 62:439, 2006).

[2] = target: IL-3 receptor on cells: IL3Rα co-expressed with the βc4 Gpoly-A mutant (M7-βc) (human), P26951; test: cell-based or functional assay
[3] = target: B1; test: X-ray crystal structure, 3.3 Å
Protocol: as §1, §2

[4] = target: T1, wild-type sβc, soluble extracellular domain of human βc (human, UniProt P32927 17-443); test: ternary complex formation of soluble proteins (all three present); wild type as the reference
T1 construct: extracellular domain; Expressed in Sf21 cells
T1 sequence (looked up): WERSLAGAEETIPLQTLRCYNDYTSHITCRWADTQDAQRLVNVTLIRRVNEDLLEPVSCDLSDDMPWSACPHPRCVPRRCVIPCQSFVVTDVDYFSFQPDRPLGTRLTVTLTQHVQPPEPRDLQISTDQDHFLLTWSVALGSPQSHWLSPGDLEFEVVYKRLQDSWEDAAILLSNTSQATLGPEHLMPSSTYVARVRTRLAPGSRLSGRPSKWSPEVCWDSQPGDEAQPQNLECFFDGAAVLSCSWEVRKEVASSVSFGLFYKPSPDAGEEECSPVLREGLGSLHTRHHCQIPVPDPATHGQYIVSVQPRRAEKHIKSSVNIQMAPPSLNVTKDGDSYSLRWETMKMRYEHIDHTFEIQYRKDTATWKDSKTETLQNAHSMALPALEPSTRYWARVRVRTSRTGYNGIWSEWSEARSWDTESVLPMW

Chain of IL-3 receptor on cells: IL3Rα co-expressed with the βc4 Gpoly-A mutant (M7-βc) (human), P26951 (P26951 19-378, change not shown): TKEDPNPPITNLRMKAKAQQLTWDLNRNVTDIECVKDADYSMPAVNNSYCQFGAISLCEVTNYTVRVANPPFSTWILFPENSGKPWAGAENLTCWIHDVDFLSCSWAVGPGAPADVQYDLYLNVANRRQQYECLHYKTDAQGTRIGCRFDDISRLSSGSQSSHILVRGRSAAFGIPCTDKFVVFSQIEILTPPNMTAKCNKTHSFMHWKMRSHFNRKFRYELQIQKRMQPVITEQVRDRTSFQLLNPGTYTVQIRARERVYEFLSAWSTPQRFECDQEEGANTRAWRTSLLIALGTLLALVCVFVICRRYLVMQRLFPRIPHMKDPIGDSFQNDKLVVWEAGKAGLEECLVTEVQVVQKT

Binder: B1
binding result [1]: binds

ED50 of proliferation of CTL-EN cells in response to IL-3 [2]: 0.0103 µg/mL
fold increase of ED50 against wild type βc [2]: 413 fold
B2: IL-3, P08700 20-152 (ligand, UniProt P08700 20-152, looked up)
chain: APMTQTTPLKTSWVNCSNMIDEIITHLKQPPLPLLDFNNLNGEDQDILMENNLRRPNLEAFNRAVKSLQNASAIESILKNLLPCLPLATAAPTRHPIHIKDGDWNEFRRKLTFYLKTLENAQAQQTTLSLAIF
modifications: here or on the partner: radio-iodinated (125I) in the COS cell binding assays

binding result [3]: binds
binding result [4]: binds
B3: sGM-CSFRα, soluble extracellular domain of the GM-CSF receptor alpha chain, expressed in Sf21 insect cells (receptor, human, UniProt P15509 23-320, looked up)
chain: EKSDLRTVAPASSLNVRFDSRTMNLSWDCQENTTFSKCFLTDKKNRVVEPRLSNNECSCTFREICLHEGVTFEVHVNTSQRGFQQKLLYPNSGREGTAAQNFSCFIYNADLMNCTWARGPTAPRDVQYFLYIRNSKRRREIRCPYYIQDSGTHVGCHLDNLSGLTSRNYFLVNGTSREIGIQFFDSLLDTKKIERFNPPSNVTVRCNTTHCLVRWKQPRTYQKLSYLDFQYQLDVHRKNTQPGTENLLINVSGDLENRYNFPSSEPRAKHSVKIRAADVRILNWSSWSEAIEFGSDDG
modifications: N-linked carbohydrate at Asn229 (modeled as NAG-NAG)
notes: extracellular domain; Cloned into the pIBV5-His vector; Residues 218-316 (domain 2) were traced in the crystal; also called GMRα
